In US20070026510A1, “Process for biochemical production of glyoxylic acid” (Kaneka Corporation, priority 2003, published 2007):

B1: KNK269-derived enzyme: aldehyde oxidase purified from Streptomyces sp. KNK269; three subunits, SEQ ID NOS: 1 to 3 (protein)
chain 1: GADLEPEPVVDEHSTVTLNVNGDPTTLTVDHRTTVLETLRESFGLTGAKKGCDHGQCGACTVLVDGRRVNSCLLLAVAQDGATITTVEGLADGEDLHPVQRAFVERDALQCGFCTPGQICSAVGMLREAADGHPSHVTGPDTAAGPDAATGPGGPVALDADEIRERMSGNIFRCGAYHRIVEAIEDVIE
chain 2: MKPFGYVRPASPDEAVRLCAEGSGARFLGGGTNLVDLMKLGVEAPRVLIDVAGLPLDRVTRTADGGLAIGATVRNSDLAAHPDVTDRYPVLSQALLAGASGQLRNSATTGGNLLQRTRCRYFQDVSKPCNKRLPGSGCPARDGTHRDLAILGHSPECVATNPSDMAVALAALDATVVLLGPEGERAVPLTEFHRLPGENPDQDTAIRTGELITEVVLPPPAPGAATRYRKARDRASFAFALVSVAATLRVDAGRVEHATLAFGGVAHRPWRARRAEAELRGAPATPAVFQHALIAELAEARPLRDNVFKVDLARRLALDVLGELTERQPTRTG
chain 3: MTTRAPQFPGAPVVRREARDKVTGTARYAADRTPAGCLYAWTVPAAVAAGRVTAVRAVDALAVPGVHTVLTHDNAPELREPDDPILAVLQDDRVPHHGWPIALVIAESPEAARTGAGELHVEYARDEHDVTLTEDHPGLYTPEEANGGEPAVRVRGDVERALAASPVQVDATYRMVALHNHPMEPHAATAVRADGHLTVHDSSQGSTKVRESLAQAFGLAADRITVVSEHVGGGFGSKGTTRPQGVLAAMAAQHTGRPVKLVFPRAQLAEVVGHRAPTIQRVRLGADLDGVLTAVSHEVVTQTSTVKEFVEQAAVPARVMYASPHSRTAHRVTALDVPSPSWMRAPGEASGMYALESAMDVLDSALGLDPVELRLRNEPETEPDSGRPFSSRGLAACLRDGAARFGWQDRDPRPAARQEGRWLIGTGVASATYPVLLSRSTASAHATRDGDLSIAVNATDIGTGARTVLAQIAADVLGVAPEALRVDIGSTDLPAAPLAGGSSGTASWGWSVHKAATALAARLAEHRGPLPADGITTTADTGQETGEESPYARHAFGAHFAETAVDAVTGEVRVRRLLGVYAAGRILNERTARSQFTGGMVMGIGMALTEGCGIDPGFGDFTAKDLASYHVPVCADTADIQAHWIEEDDRHLNPMGSKGIGEIGIVGTAAAIGNAVRHATGARLRELPLTTDT
modifications: Streptomyces sp. KNK269; amino acid sequence of subunit gamma of aldehyde oxidase; amino acid sequence of subunit beta of aldehyde oxidase; amino acid sequence of subunit alpha of aldehyde oxidase

How the values were obtained:
[1] = Oxidase activity to glyoxylic acid (H2O2 detection with 4-AA/TOOS/POD, absorbance 555 nm); format: biochemical; settings: substrate glyoxylic acid, relative to glyoxal = 100; enzymes of the invention
Protocol: (§1) The cell-free extract of each of KNK235 and KNK058 obtained by the method described in Example 1 was charged to a Resource Q column (6 ml) that had previously been equilibrated with a 0.05 M phosphate buffer (pH 7), and the enzyme was eluted with a linear concentration gradient of sodium chloride from 0 to 0.5 M, so as to collect active fractions. Roughly purified enzyme solutions of these KNK235 and KNK058 and purified enzymes obtained from Streptomyces sp. KNK269, Microbacterium sp. KNK011, and Cellulosimicrobium cellulans IFO 15516, obtained in Examples 4, 5, and 7, respectively, were measured in terms of their oxidase activity to glyoxal and to glyoxylic acid. Measurement of the enzyme activity was carried out by the following method. That is, 1.0 ml of a reaction solution comprising 10 mM glyoxal or glyoxylic acid, 0.67 mM 4-AA, 1.09 mM TOOS, 2 U/ml POD, and a roughly purified enzyme from KNK235 or KNK058, or a purified enzyme obtained from NKN269, KNK011, or IFO 15516 in Example 4, 5, or 7, was reacted at 30° C. in a 100 mM phosphate buffer (pH 7). Thereafter, an increase in the absorbance at a wavelength of 555 nm was measured.

[2] = Conversion of glyoxal into glyoxylic acid by purified enzymes, HPLC; format: biochemical; settings: 0.2 U/ml enzyme, 50 mM glyoxal, 5,000 U/ml catalase, 100 mM Tris-HCl, 30° C., 3 hours
Protocol: Each of the enzymes derived from Streptomyces sp. KNK269, Microbacterium sp. KNK011, Pseudomonas sp. KNK058, and Cellulosimicrobium cellulans IFO 15516, which were obtained in Examples 4, 5, 6, and 7, respectively, was reacted using glyoxal as a substrate. That is, 1 ml of 100 mM Tris-HCl buffer comprising 0.2 U/ml enzyme derived from each of the above strains, 50 mM glyoxal, and 5,000 U/ml catalase, were placed in a test tube. It was then subjected to a shake reaction at 30° C. for 3 hours. After completion of the reaction, the reaction solution was analyzed by high performance liquid chromatography.

[3] = Oxidase activity to glyoxal (H2O2 detection with 4-AA/TOOS/POD, absorbance 555 nm); format: biochemical; settings: for Activity to glyoxal/activity to glyoxylic acid: 10 mM substrate, 30° C., 100 mM phosphate buffer pH 7; for Relative activity (%): substrate glyoxal (reference = 100), enzymes of the invention
Protocol: When the reaction is catalyzed by oxidase, not only glyoxylic acid but also hydrogen peroxide is produced. Oxidase activity of interest can easily be detected by detecting such hydrogen peroxide.
Specifically, 0.1 ml of cell suspension or enzyme solution is added to 0.9 ml of a 100 mM phosphate buffer (pH 7) having the composition indicated below, and an increase in the absorbance at a wavelength of 555 nm is measured at 30° C. In the present invention, enzyme activity for generating 1 μmol H2O2 per minute is defined as 1 unit.
as §1

[4] = Heat stability of purified enzyme (remaining activity); format: physicochemical; settings: 0.05 M phosphate buffer pH 7.2, 20 minutes, treatment at 70° C. (FIG. 3)
Protocol: as §1, with “measured. […]” for “measured.”
The present enzyme was treated in a 0.05 M phosphate buffer (pH 7.2) at each temperature from 30° C. to 70° C. for 20 minutes. Thereafter, the remaining activity of the present enzyme was measured using glyoxal as a substrate.

| Molecule | Relative activity (%) [1] | glyoxylic acid generated [2] | Activity to glyoxal/activity to glyoxylic acid [3] | Relative activity (%) [3] | remaining activity after heat treatment [4] |
| --- | --- | --- | --- | --- | --- |
| IFO15516-derived enzyme: aldehyde oxidase purified from culture supernatant of Cellulosimicrobium cellulans IFO 15516; SEQ ID NOS: 11 and 12 | 1% | 26 mM | 100 | 100% |  |
| KNK011-derived enzyme: aldehyde oxidase purified from Microbacterium sp. KNK011; SEQ ID NOS: 7 and 8 | 0.5% | 25 mM | 183 | 100% |  |
| B1 | 0.1% | 7.6 mM | 1,710 | 100% | ≥ 90% |
